From patent US20160145308A1 (SANFORD BURNHAM MEDICAL RESEARCH INSTITUTE, published 2016)
Each block holds one binder with its values, some of them ahead of it. Where no end group is shown, it is not given here. The star is where a group is joined. FITC = O=C1OC2(c3ccc(O)cc3Oc3cc(O)ccc32)c2ccc(NC(=S)*)cc21

Experiments:
[1] = target: T1, CNGB3-MYC/His fusion protein (human, UniProt Q9NQW8 1-809); assay: fluorescence microscopy of HeLa cells transfected with CNGB3-MYC; FITC-z13 in the culture medium
T1 construct: Full-length CNGB3 cDNA in pcDNA3.1/myc-His-B, expressed in HeLa and HEK293T cells; also called recombinant CNGB3; not shown: C-terminal myc-His tag from the pcDNA3.1/myc-His-B vector
T1 sequence: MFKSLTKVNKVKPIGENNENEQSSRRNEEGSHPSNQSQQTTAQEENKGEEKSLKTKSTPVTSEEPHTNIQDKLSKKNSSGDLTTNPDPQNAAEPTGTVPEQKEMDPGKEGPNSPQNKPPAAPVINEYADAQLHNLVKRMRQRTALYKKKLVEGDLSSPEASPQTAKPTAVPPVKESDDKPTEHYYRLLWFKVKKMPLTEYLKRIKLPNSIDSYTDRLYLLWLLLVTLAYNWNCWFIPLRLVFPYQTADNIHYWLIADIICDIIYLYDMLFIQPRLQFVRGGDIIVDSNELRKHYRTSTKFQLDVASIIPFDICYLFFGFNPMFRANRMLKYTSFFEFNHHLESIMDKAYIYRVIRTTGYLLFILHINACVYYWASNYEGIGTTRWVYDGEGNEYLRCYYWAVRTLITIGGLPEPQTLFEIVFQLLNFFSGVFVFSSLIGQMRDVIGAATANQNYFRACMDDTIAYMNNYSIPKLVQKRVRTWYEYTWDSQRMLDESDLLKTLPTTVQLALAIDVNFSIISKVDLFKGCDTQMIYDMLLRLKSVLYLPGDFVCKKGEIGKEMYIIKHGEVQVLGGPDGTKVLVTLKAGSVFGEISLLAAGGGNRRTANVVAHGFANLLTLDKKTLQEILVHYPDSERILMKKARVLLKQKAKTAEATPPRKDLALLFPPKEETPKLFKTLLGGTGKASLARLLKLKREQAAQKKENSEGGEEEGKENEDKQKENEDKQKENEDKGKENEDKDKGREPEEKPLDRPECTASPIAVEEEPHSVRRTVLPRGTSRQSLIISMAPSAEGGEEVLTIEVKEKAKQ
Procedure: When FITC-z13 was added to culture medium of CNGB3-MYC-expressing HeLa cells, FITC-z13 bound to sites marked by MYC-epitope expression. […] Antibody specificity was validated by immunostaining of CNGB3-Myc expressed in HeLa cells. This antibody strongly stained glandular epithelia of endometriosis in tissue sections.
CNGB3 cDNA was kindly provided by Dr. Hisao Ueyama, Department of Ophthalomology, Shiga University of Medical Science, Japan. cDNA encoding full-length CNGB3 was excised by HindIII and BsrGI and ligated into the HindIII and Asp718I sites of pcDNA3.1/myc-His-B vector (Invitrogen). HeLa cells were transfected with this vector, and expression of CNGB3-MYC/His fusion protein was determined by immunohistochemistry with an anti-MYC antibody and the anti-CNGB3 antibody (clone 3B2) described above. To test binding of z13 peptide to CNGB3, FITC-z13 was added (5 μg/ml) to the medium of HeLa cells transfected by the above-described vector and incubated at 37° C. for 15 min. Cells were washed with PBS, fixed with 4% PFA in PBS, and observed under a fluorescence microscope.

[2] = target: T1, CNGB3-MYC/His fusion protein; assay: fluorescence microscopy of CNGB3-MYC expressing HEK293T cells, 37° C. for 30 min, Alexa 488-conjugated avidin
Procedure: When dKLAK-z13 was added to culture medium of HEK293T cells transfected by expression vector for CNGB3-MYC, apoptosis was not induced, however. It was realized that this lack of effect could be due to the fact that receptor-bound dKLAK-z13 localizes to the luminal side of endosomes, a prediction supported by the endosome-like pattern of fluorescent z13. To release dKLAK-z13 from the endosomes to the cytoplasm, an endosome-escaping 18-mer peptide […] (SEQ ID NO:38; here abbreviated as HLAH) was devised by replacing lysines in KLAKLAK (SEQ ID NO:39) with histidines, to provide histidine-rich sequences capable of destabilizing endosome membranes at acidic pH (Midoux et al., 2002; Pichon et al., 2001). […] For this experiment, biotin-z13 was bound to CNGB3-MYC expressing HEK293T cells at 37° C. for 30 min with or without HLAH-z13. Cells were stained by Alexa 488-conjugated avidin followed by DAPI nuclear staining.

binding result [1]: binds
B1: FITC-z13 (peptide)
peptide: {FITC}-VRRADNRPG
notes: Synthetic fluorescence-tagged z13 peptide; also called fluorescent FITC-z13; z13 peptide with an N-terminal FITC-tag

binding result [2]: binds
Binder: VRRADNRPG (also: biotinylated (position not given here), also called biotin-z13) [biotinylated z13]
